# Starred links: 1 amine or outer side, 2 acyl side, 3 side chain; linkers in the order of their positions; H or OH if unused. Positions of bridges follow the written chain, without caps; N, C: chain ends. Non-standard residues stand in square brackets, D forms with d. Residues, ends and D or L forms follow the SMILES beside them. No end group written: not given here. *: point of attachment. Yde = (2S)-2-amino-3-[4-[2-(dimethylamino)ethoxy]phenyl]propanoic acid, CN(C)CCOc1ccc(C[C@H](N[*:1])C(=O)[*:2])cc1; Phe(4-OMe) = COc1ccc(C[C@H](N[*:1])C(=O)[*:2])cc1; 2Nal = N[C@@H](Cc1ccc2ccccc2c1)C(=O)O; AEF = NCCOc1ccc(C[C@H](N)C(=O)O)cc1; NMe5Ava = CN(CCCCC(=O)[*:2])[*:1]; Dad = desamino-aspartamic acid; αMeL = CC(C)C[C@](C)(N)C(=O)O; Nmapt = not defined here; Thp = NC1(C(=O)O)CCOCC1; Me2NCH2CH2 = CN(C)CC*; Aib = CC(C)(N)C(=O)O; Ahx = NCCCCCC(=O)O; Ava = NCCCCC(=O)O
# T1: IL-23 receptor on the surface of HEK-Blue IL-23 cells (UniProt Q5VWK5 24-629, limits assumed)
# T1 sequence (looked up): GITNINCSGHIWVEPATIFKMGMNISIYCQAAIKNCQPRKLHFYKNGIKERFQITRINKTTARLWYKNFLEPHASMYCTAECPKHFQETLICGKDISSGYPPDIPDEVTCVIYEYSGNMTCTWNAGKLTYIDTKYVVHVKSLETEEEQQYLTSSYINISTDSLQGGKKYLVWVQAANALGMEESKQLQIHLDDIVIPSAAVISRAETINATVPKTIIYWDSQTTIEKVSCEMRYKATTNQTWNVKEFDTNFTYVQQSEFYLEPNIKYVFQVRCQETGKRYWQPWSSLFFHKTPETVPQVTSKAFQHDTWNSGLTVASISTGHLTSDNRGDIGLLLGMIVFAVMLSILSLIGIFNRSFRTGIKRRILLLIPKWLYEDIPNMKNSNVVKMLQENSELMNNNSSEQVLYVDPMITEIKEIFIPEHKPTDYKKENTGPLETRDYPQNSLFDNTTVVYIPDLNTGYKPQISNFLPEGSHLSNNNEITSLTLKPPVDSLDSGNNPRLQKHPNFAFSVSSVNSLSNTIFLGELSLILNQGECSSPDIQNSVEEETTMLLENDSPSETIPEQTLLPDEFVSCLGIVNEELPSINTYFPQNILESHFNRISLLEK
# Molecular target: T1, IL-23 receptor on the surface of …
# Experiment: cell-based or functional assay
# Conditions: not given
row,pSTAT3 (nM),Molecule
1,69.5,"[Nmapt]CKWQC[AEF][2Nal][αMeL]EAG-NH2 (lactam N-10; disulfide 2-6; not fully specified (residue 3); printed as Nmapt(§1)-C(§3)(@2)-K[aAc](@3)-W-Q-C(@2)-Yae-Nal-Mle-E(§1)-A-G-NH2; reading uncertain; also: K3 acetylated (K[aAc]), acetyl site not given here, ε-NH2 takes the Cys2 bond) [Compound of SEQ ID NO: 18]"
2,32,"[Nmapt]CKWQC[AEF][2Nal][Thp]ENN-NH2 (lactam N-10; disulfide 2-6; not fully specified (residue 3); printed as Nmapt(§1)-C(§3)(@2)-K[aAc](@3)-W-Q-C(@2)-Yae-Nal-Thp-E(§1)-N—N—NH2; reading uncertain; also: K[aAc]: Cys2 bonded to epsilon-NH2 of acetylated Lys3, acetyl presumably on alpha-amine) [Compound of SEQ ID NO: 13]"
3,54,[Ahx]CNTWQC[Phe(4-OMe)][2Nal][Aib]ENN-NH2 (lactam N-11; disulfide 2-7; SMILES COc1ccc(C[C@@H]2NC(=O)[C@@H]3CSSC[C@H](NC(=O)CCCCCNC(=O)CC[C@@H](C(=O)N[C@@H](CC(N)=O)C(=O)N[C@@H](CC(N)=O)C(N)=O)NC(=O)C(C)(C)NC(=O)[C@H](Cc4ccc5ccccc5c4)NC2=O)C(=O)N[C@@H](CC(N)=O)C(=O)N[C@@H]([C@@H](C)O)C(=O)N[C@@H](Cc2c[nH]c4ccccc24)C(=O)N[C@@H](CCC(N)=O)C(=O)N3)cc1) [Compound of SEQ ID NO: 2]
4,18.5,[Ava]CNTWQC[Phe(4-OMe)][2Nal][Aib]ENN-NH2 (lactam N-11; disulfide 2-7; SMILES COc1ccc(C[C@@H]2NC(=O)[C@@H]3CSSC[C@H](NC(=O)CCCCNC(=O)CC[C@@H](C(=O)N[C@@H](CC(N)=O)C(=O)N[C@@H](CC(N)=O)C(N)=O)NC(=O)C(C)(C)NC(=O)[C@H](Cc4ccc5ccccc5c4)NC2=O)C(=O)N[C@@H](CC(N)=O)C(=O)N[C@@H]([C@@H](C)O)C(=O)N[C@@H](Cc2c[nH]c4ccccc24)C(=O)N[C@@H](CCC(N)=O)C(=O)N3)cc1) [Compound of SEQ ID NO: 1]
5,32.1,"[Nmapt]CKWQC[AEF][2Nal][Thp]ENG-NH2 (lactam N-10; disulfide 2-6; not fully specified (residue 3); printed as Nmapt(§1)-C(§3)(@2)-K[aAc](@3)-W-Q-C(@2)-Yae-Nal-Thp-E(§1)-N-G-NH2; reading uncertain; also: K3 acetylated (K[aAc]), acetyl site not given here, ε-NH2 takes the Cys2 bond) [Compound of SEQ ID NO: 16]"
6,88.3,"[Nmapt]CKWQC[AEF][2Nal][Aib]EA[dL]-NH2 (lactam N-10; disulfide 2-6; not fully specified (residue 3); printed as Nmapt(§1)-C(§3)(@2)-K[aAc](@3)-W-Q-C(@2)-Yae-Nal-Aib-E(§1)-A-(D-Leu)-NH2; reading uncertain; also: K3 acetylated (K[aAc]), acetyl site not given here, ε-NH2 takes the Cys2 bond) [Compound of SEQ ID NO: 19]"
7,27.9,"[Nmapt]CKWQC[AEF][2Nal][Aib]ENN-NH2 (lactam N-10; disulfide 2-6; not fully specified (residue 3); printed as Nmapt(§1)-C(§3)(@2)-K[aAc](@3)-W-Q-C(@2)-Yae-Nal-Aib-E(§1)-N—N—NH2; reading uncertain; also: K[aAc]: Cys2 bonded to epsilon-NH2 of acetylated Lys3, acetyl presumably on alpha-amine) [Compound of SEQ ID NO: 12]"
8,18.7,"[Nmapt]CKWQC[AEF][2Nal][αMeL]ENN-NH2 (lactam N-10; disulfide 2-6; not fully specified (residue 3); printed as Nmapt(§1)-C(§3)(@2)-K[aAc](@3)-W-Q-C(@2)-Yae-Nal-Mle-E(§1)-N—N—NH2; reading uncertain; also: K[aAc]: Cys2 bonded to epsilon-NH2 of acetylated Lys3, acetyl presumably on alpha-amine) [Compound of SEQ ID NO: 14]"
9,53.5,[Dad]CNTWQC[Phe(4-OMe)][2Nal][Aib]KNN-NH2 (lactam (positions not given here); disulfide 2-7; not fully specified (bridges); printed as Dad(§1)-C(@2)-N-T-W-Q-C(@2)-Yme-Nal-Aib-K(§1)-N—N—NH2) [Compound of SEQ ID NO: 11]
10,29.2,"[Nmapt]CKWQC[AEF][2Nal][Aib]ENG-NH2 (lactam N-10; disulfide 2-6; not fully specified (residue 3); printed as Nmapt(§1)-C(§3)(@2)-K[aAc](@3)-W-Q-C(@2)-Yae-Nal-Aib-E(§1)-N-G-NH2; reading uncertain; also: K3 acetylated (K[aAc]), acetyl site not given here, ε-NH2 takes the Cys2 bond) [Compound of SEQ ID NO: 15]"
11,62,"[Nmapt]CKWQC[AEF][2Nal][Thp]EAG-NH2 (lactam N-10; disulfide 2-6; not fully specified (residue 3); printed as Nmapt(§1)-C(§3)(@2)-K[aAc](@3)-W-Q-C(@2)-Yae-Nal-Thp-E(§1)-A-G-NH2; reading uncertain; also: K3 acetylated (K[aAc]), acetyl site not given here, ε-NH2 takes the Cys2 bond) [Compound of SEQ ID NO: 17]"
12,25.8,[Ava]CNTWQC[Yde][2Nal][αMeL]EN[dL]-NH2 (lactam N-11; disulfide 2-7; SMILES CC(C)C[C@@H](NC(=O)[C@H](CC(N)=O)NC(=O)[C@@H]1CCC(=O)NCCCCC(=O)N[C@H]2CSSC[C@H](NC(=O)[C@H](CCC(N)=O)NC(=O)[C@H](Cc3c[nH]c4ccccc34)NC(=O)[C@H]([C@@H](C)O)NC(=O)[C@H](CC(N)=O)NC2=O)C(=O)N[C@@H](Cc2ccc(OCCN(C)C)cc2)C(=O)N[C@@H](Cc2ccc3ccccc3c2)C(=O)N[C@@](C)(CC(C)C)C(=O)N1)C(N)=O) [Compound of SEQ ID NO: 10]

# Molecular target: T2, human interleukin-23 receptor (recombinant human IL-23R-Fc chimera) (Homo sapiens, UniProt Q5VWK5)
# T2 construct: Fc (IgG Fc fusion)
# Experiment: Human ELISA IL23/IL23R (assay for specific human IL23R antagonists)
# Assay type: binding
# Conditions: Table 10; read-out: Human ELISA IL23/IL23R IC50
# Protocol: Antagonism of compounds for human interleukin-23 receptor antagonists, was determined by an ELISA assay.
# A 384-well plate was coated with 50 μl/well of human IL23 at a final concentration of […] and incubated overnight at 4° C. The wells were washed 3 times with 80 μl wash buffer and blocked with 80 μl blocking buffer for 60 minutes at room temperature and washed again. 20 μl of serially diluted test peptides was added to each well and subsequently 20 μl of recombinant human IL-23R-Fc chimera at final concentration of 0.1 μg/ml. The plate was incubated for 60 minutes at room temperature. After the wells were washed, bound IL23R-Fc was detected with goat anti-hu-IgG1-HRP antibody. Signals were visualized with QuantaBlu Fluorogenic Peroxidase Substrate.
row,IC50 [nM],Molecule
1,0.32,CC(C)C[C@]1(C)NC(=O)[C@H](Cc2ccc3ccccc3c2)NC(=O)[C@H](Cc2ccc(OCCN(C)C)cc2)NC(=O)[C@@H]2CSSC[C@H](NC(=O)CCCCN(C)C(=O)CC[C@@H](C(=O)N[C@@H](CC(N)=O)C(=O)N[C@@H](CC(N)=O)C(N)=O)NC1=O)C(=O)N[C@@H](CC(N)=O)C(=O)N[C@@H]([C@@H](C)O)C(=O)N[C@@H](Cc1c[nH]c3ccccc13)C(=O)N[C@@H](CCC(N)=O)C(=O)N2 [compound 42] ([NMe5Ava]CNTWQCY(Me2NCH2CH2)[2Nal][αMeL]ENN-NH2; disulfide 2-7; lactam N-11)

# Tested on: IL-23 induced STAT3 signaling in HEK-Blue™ IL-23 cells
# Experiment: IL-23 induced STAT3 signaling in HEK-Blue IL-23 cells (SEAP reporter)
# Assay type: cell-based
# Conditions: human IL23 0.25 ng/ml, read-out: pSTAT3
# Text: HEK-Blue™ IL-23 cells (Invivogen) are designed for the detection of bioactive human (hIL-23) and murine IL-23 (mIL-23) by monitoring the activation of the STAT3 pathway. Binding of IL-23 to its receptor on the surface of HEK-Blue™ IL-23 cells triggers a signalling cascade leading to the activation of STAT3 and the subsequent production of secreted embryonic alkaline phosphatase (SEAP). This can be readily assessed using QUANTI-Blue™ Solution, a SEAP detection reagent.
# HEK-Blue™ IL-23 cells were cultured as described by Invivogen.
# On the first day of assay 10 μL of the HEK-Blue IL23 cell suspension (final concentration: 10,000 cells/well) and 10 μl of serially diluted peptides solutions were dispensed into a 384-well assay plate. After pre-incubation of the reaction mixtures at 37° C./5% CO2/95% humidity for 60 minutes, 10 μl of the human IL23 cytokine (final concentration: 0.25 ng/ml) was added to each well for the STAT3 signalling activation. The plate was incubated overnight at 37° C./5% CO2/95% humidity.
# On the second day 20 μl per well of Quanti-Blue detection solution (prepared according to the manufacture instruction) was dispensed into a new 384-well plate and followed by the transfer of 5 μl supernatant of the overnight incubated cell/sample mixtures. After incubation of 45 min at room temperature signals were measured with PHERAstar (BMG) at OD 620-655 nm. Dose response data were fitted with XLfit.
row,Molecule,IC50 [nM]
1,CC(C)C[C@]1(C)NC(=O)[C@H](Cc2ccc3ccccc3c2)NC(=O)[C@H](Cc2ccc(OCCN(C)C)cc2)NC(=O)[C@@H]2CSSC[C@H](NC(=O)CCCCN(C)C(=O)CC[C@@H](C(=O)N[C@@H](CC(N)=O)C(=O)N[C@@H](CC(N)=O)C(N)=O)NC1=O)C(=O)N[C@@H](CC(N)=O)C(=O)N[C@@H]([C@@H](C)O)C(=O)N[C@@H](Cc1c[nH]c3ccccc13)C(=O)N[C@@H](CCC(N)=O)C(=O)N2 [compound 42] ([NMe5Ava]CNTWQCY(Me2NCH2CH2)[2Nal][αMeL]ENN-NH2; disulfide 2-7; lactam N-11),1.42

# From US20260258084A1, “New Peptides as Selective IL-23 Receptor Antagonists” (Sanofi, priority 2022, published 2026)
